Reference: publication PMC6020066 (Science (New York, N.Y.), 2018)

Target: HA-GST-LC3B (UniProt Q9GZQ8 1-120)
Test: pull-down

B1: purified FLAG-NUFIP1-HA-ZNHIT3 complex (complex)
chain 1: not shown
chain 2: MASLKCSTVVCVICLEKPKYRCPACRVPYCSVVCFRKHKEQCNPETRPVEKKIRSALPTKTVKPVENKDDDDSIADFLNSDEEEDRVSLQNLKNLGESATLRSLLLNPHLRQLMVNLDQGEDKAKLMRAYMQEPLFVEFADCCLGIVEPSQNEES
Question: Does B1 bind?
Answer: Result: binds
